The supplement of paper PMC12042874
± gives the uncertainty stated by the source.

Assay: amyloid nucleation score (Sup35N fusion, yeast selection) (log enrichment); library NNK3; higher = more nucleation; inactive = no reads after selection
How it was run: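 Nucleation score is defined as the DiMSum log enrichment of output over input reads, with centring on the mode score of non-aggregating sequences. A minimum of 100 input reads was required for each sequence. Reads came from Illumina sequencing of plasmid inserts from psi-negative yeast expressing Sup35N fused to peptides of 20 random codons, induced with 100 μM copper sulfate for 24 hours and grown 7 days at 30°C on medium lacking adenine and uracil.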

Substance	amyloid nucleation score
NMVSFWN	inactive
KGGWEADLYYVVCLVIISIW	inactive
PFSSLASVVPLRGFG	inactive
FTAWTLLLSGMFVIASANMA	inactive
REVRNWRERVCQMRVLVVMC	inactive
YCSYQNR	inactive
FFNKGCMFCSREAVIVQIWG	2.62 ± 0.082
FMVMRVPRCPVDCNVPGGIN	inactive
ISSYFNMCDLCVDVRHTYRR	inactive
PQIVFRFDNIDQ	inactive
MSESTITLPWIAGIAWDEKL	inactive
MLCHLVMTSSLSRFLDRGFR	1.26 ± 0.1
IYLYYGRTYSTFLWEV	0.762 ± 0.12
YMLLVSGFA	inactive
KGSTSAVIGRYGWLRMRC	inactive
ERESKNLLQVAYSGYCIVWA	inactive
RHEVYSTANYHVCSCRFFIV	0.406 ± 0.17
GIFCGLTGLIDGMRTQHSEL	0.816 ± 0.12
RLSEFGVNVAQMWATVVTSL	inactive
IESVRKHGGCTAFVSSWYVM	inactive
NSLFCTWSSPWVYNPTYGWE	1.26 ± 0.17
SLMSSRSCVTRTLLARQVYL	inactive
VCWSHKCRVDVS	inactive
YLRVQDLWWNKFENARHSSI	inactive
PSNMRG	0.147 ± 0.34
EVGLRSLMFHSGQGIRMYNY	inactive
FRLVGNIRTFYGYR	inactive

Substance	amyloid nucleation score
RGIANCPHLCIAYLMLS	inactive
SVGFVHFVNTGDQKYERRVD	inactive
RVKRWK	-0.095 ± 0.85
DACSVNEMSYVDTAGIWVWR	inactive
LCRYRNSYICSGNIIWMCSL	inactive
ALNDLLAYSLSSKSFSYNWI	inactive
YLDYSFREFCRMNQ	inactive
SSFLKQLLGSVVNSVNVATV	inactive
HLRVRCLSF	inactive
SFITIVIVSVGMRSLVLHRL	inactive
SCVRVTSLGVNNTRFFDRSW	inactive
NYKVRLNQDFENRHRYSMDT	inactive
DFWRTIEGKMSLALI	inactive
FLGVNNNSVVNLYELCD	inactive
YWYIIYAMSGLWYSSVNRVD	inactive
NCNVPRSHGGGFLTYTLMRE	inactive
FPILS	inactive
NSYIFVQALMTFGDLTWAFH	2.34 ± 0.073
VRMFRDLLYPAEYLS	inactive
LGNIGVELVDRCDRYIYQPD	0.627 ± 0.2
IFCYPQAQS	inactive
LFLGLIVVGTVLNELSMTNA	inactive
TSSAHNTRSCLMM	inactive
HCFVANGFLD	inactive
SFRFWSFYTCGEYKWDGTKG	inactive
YTNALPAITFVVIGHLAIQ	2.64 ± 0.068
GLERLMDPLGNHRVRGDRVG	inactive

Substance	amyloid nucleation score
PIFFCFNDVWTGNVVLDAMG	3.05 ± 0.058
RHGSCMTVCVYSSMLSYRST	0.163 ± 0.31
SVRLTIEMVTAVFRWGESMR	0.233 ± 0.32
VQWSVSFLSVVGVPWYRRLV	inactive
WISNTRCVLFVGN	inactive
HDLAGQFISV	inactive
LVYFFFRVYNGPRMGS	inactive
CGSWAYRY	0.435 ± 0.19
VNDPEAR	-0.391 ± 1.2
ITMCIIHHRHLMATSFM	0.752 ± 0.18
LFSSRYDLIDVNVRGVDYSQ	inactive
GIGRDCNVSGALCQRAVANV	inactive
PTLYRQNGLLWLVDGEKLIR	inactive
IWVSYWAGFVRSFSRVCNLV	inactive
AVLCELVQDMFSLGVYVCHE	0.531 ± 0.32
SWSTSNVVLNL	1.99 ± 0.072
RDLVPLDDRA	inactive
AHVALR	inactive
SKVRICKDKGWSG	inactive
SYYSSDKMIVSVGLLKRDAK	inactive
KKSKRISLGR	inactive
LYDCRRGNLVTSCWNKCCLP	inactive
IFILTMSDWVFL	1.91 ± 0.062
SYGHLQILKVMAIPSYAFPK	inactive
GFRRRSMDALSVTVDSVVAP	inactive
LDCFCSPVKVTWH	0.146 ± 0.21
